These results are taken from publication PMC11965401 (Nature Communications, 2025).

Assay [1] has as its target FLAG-KBTBD4^R313PRR (17-536 a.a.), full-length dimer (human (from the printed UniProt entry)) (UniProt Q9NVX7). As to the kind of experiment: MST; unlabelled partner titrated into 40 nM RED-NHS-labelled KBTBD4 variant, no compound; 50 mM HEPES pH 7.5, 150 mM NaCl, 10% glycerol, 5 mM MgCl2, 0.05% Tween-20, 0.1 mM TCEP; 25 °C; apparent KD; triplicates.
In assay [2] the target is T1, KBTBD4^WT with CoREST1^NT2-HDAC2 (ternary complex) (Homo sapiens, UniProt Q92769+Q9NVX7).
T1 construct: FLAG-KBTBD4 17-534 (near full length, dimer, N-terminal 3xFLAG); untagged full-length HDAC2 1-488 co-expressed with CoREST1 ELM2-SANT1 71-259 carrying C-terminal FLAG/10xHis; Expi293F; purified; complexes 2:1:1, also 2:1 and 2:2 KBTBD4:HDAC2 by cryo-EM; with REST corepressor 1
Briefly: microscale thermophoresis, labelled KBTBD4 WT. Type of assay: binding. (Microscale thermophoresis detects binding through changes in fluorescence in a small temperature gradient.)

In assay [3] the target is T2, CoREST1^NT2-HDAC2 (Homo sapiens, UniProt Q92769).
T2 construct: untagged full-length HDAC2 1-488 co-expressed with CoREST1 ELM2-SANT1 71-259 (C-terminal FLAG/10xHis) in Expi293F, purified; with REST corepressor 1
Briefly: microscale thermophoresis, competition with labelled KBTBD4 R313PRR. Conditions: blocks KBTBD4 R313PRR binding to HDAC2; HDAC2 catalytic site; pH 7.5, 25 °C.

Assay [4] addresses FLAG-KBTBD4^R313PRR (17-536 a.a.), full-length dimer (human (from the printed UniProt entry)), Q9NVX7. As to the kind of experiment: cryo-EM structure; 4 µM KBTBD4^R313PRR mixed with 4 µM CoREST1^NT2-HDAC2, 50 mM HEPES pH 7.5, 150 mM NaCl, 10% glycerol, 5 mM MgCl2, 0.5 mM TCEP, 15 min on ice, not crosslinked. Conditions: remark: other sources report otherwise.
The target in assay [5] is FLAG-KBTBD4^WT (17-534 a.a.) (human (from the printed UniProt entry)), Q9NVX7. As to the kind of experiment: cryo-EM structure; 4 µM KBTBD4^WT, 4 µM CoREST1^NT2-HDAC2 and 40 µM UM171, 50 mM HEPES pH 7.5, 150 mM NaCl, 5% glycerol, 5 mM MgCl2, 0.5 mM TCEP, crosslinked with BS3. The settings on record: remark: other sources report otherwise.

Turning to “CoREST1^NT2-HDAC2 complex (recombinant, co-expressed) (from UniProt Q92769-1 1-488)”, the Kd in assay [1] is 750 nM.
As to `COC(=O)c1ccc2c(c1)[nH]c1nc(Cc3ccccc3)nc(NCCCN3CCCC3)c12` [compound 13, S234984], the Kd in assay [2] is 2300 nM.
The molecule `Cn1cc(-c2ccc3c(c2)[nH]c2nc(Cc4ccccc4)nc(NC4CCC(N)CC4)c23)cn1` (stereo not drawn) [compound 2, compound (2)] displayed a Kd in assay [2] of 26000 nM.
Regarding `CC(=O)Nc1ccc(C(=O)Nc2cc(-c3cccs3)ccc2N)cc1` [BRD6929], the “microscale thermophoresis, competition with labelled KBTBD4 R313PRR” value in assay [3] was “the addition of BRD6929 abrograted all KBTBD4^R313PRR-HDAC2 binding in the MST assay”.

B1: FLAG-KBTBD4^R313PRR (17-536 a.a.), full-length dimer, Q9NVX7-2 17-534 (natural protein)
chain: MESPEEPGASMDENYFVNYTFKDRSHSGRVAQGIMKLCLEEELFADVTISVEGREFQLHRLVLSAQSCFFRSMFTSNLKEAHNRVIVLQDVSESVFQLLVDYIYHGTVKLRAEELQEIYEVSDMYQLTSLFEECSRFLARTVQVGNCLQVMWLADRHSDPELYTAAKHCAKTHLAQLQNTEEFLHLPHRLLTDIISDGVPCSQNPTEAIEAWINFNKEEREAFAESLRTSLKEIGENVHIYLIGKESSRTHSLAVSLHCAEDDSISVSGQNSLCHQITAACKHGGDLYVVGGSIPRPRRMWKCNNATVDWEWCAPLPRDRLQHTLVSVPGKDAIYSLGGKTLQDTLSNAVIYYRVGDNVWTETTQLEVAVSGAAGANLNGIIYLLGGEENDLDFFTKPSRLIQCFDTETDKCHVKPYVLPFAGRMHAAVHKDLVFIVAEGDSLVCYNPLLDSFTRLCLPEAWSSAPSLWKIASCNGSIYVFRDRYKKGDANTYKLDPATSAVTVTRGIKVLLTNLQFVLA
modifications: here or on the partner: RED-NHS 2nd generation fluorescent label, in the MST experiments only; RED-NHS 2nd generation fluorescent label, in the MST experiments only
One may read the stoichiometry N as a count of units in the complex or per binding partner. For B1, in assay [4], the stoichiometry N worked out at 2.

B2: FLAG-KBTBD4^WT (17-534 a.a.), Q9NVX7-2 17-534 (natural protein)
chain: MESPEEPGASMDENYFVNYTFKDRSHSGRVAQGIMKLCLEEELFADVTISVEGREFQLHRLVLSAQSCFFRSMFTSNLKEAHNRVIVLQDVSESVFQLLVDYIYHGTVKLRAEELQEIYEVSDMYQLTSLFEECSRFLARTVQVGNCLQVMWLADRHSDPELYTAAKHCAKTHLAQLQNTEEFLHLPHRLLTDIISDGVPCSQNPTEAIEAWINFNKEEREAFAESLRTSLKEIGENVHIYLIGKESSRTHSLAVSLHCAEDDSISVSGQNSLCHQITAACKHGGDLYVVGGSIPRRMWKCNNATVDWEWCAPLPRDRLQHTLVSVPGKDAIYSLGGKTLQDTLSNAVIYYRVGDNVWTETTQLEVAVSGAAGANLNGIIYLLGGEENDLDFFTKPSRLIQCFDTETDKCHVKPYVLPFAGRMHAAVHKDLVFIVAEGDSLVCYNPLLDSFTRLCLPEAWSSAPSLWKIASCNGSIYVFRDRYKKGDANTYKLDPATSAVTVTRGIKVLLTNLQFVLA
modifications: here or on the partner: RED-NHS 2nd generation fluorescent label, in the MST experiments only; RED-NHS 2nd generation fluorescent label, in the MST experiments only
B2: in assay [5], the stoichiometry N is 2.
